Source: the supplement of paper PMC10065799, “High-throughput profiling of sequence recognition by tyrosine kinases and SH2 domains using bacterial peptide display” (eLife, 2023)

Target: FGFR3 (UniProt P22607)
Test: phosphorylation enrichment, bacterial display (enrichment ratio); higher = better substrate or ligand; peptides without Tyr show the background
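Also: 11-residue human phosphosite peptides and single-mutation variants displayed on the E. coli surface, counted by deep sequencing, each peptide's frequency after selection divided by its frequency in the unselected input library; frequency after pTyr selection over input frequency; kinase dosed for 20-30% of maximal phosphorylation in three min.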

Sequence of FGFR3 (P22607 whole entry, looked up): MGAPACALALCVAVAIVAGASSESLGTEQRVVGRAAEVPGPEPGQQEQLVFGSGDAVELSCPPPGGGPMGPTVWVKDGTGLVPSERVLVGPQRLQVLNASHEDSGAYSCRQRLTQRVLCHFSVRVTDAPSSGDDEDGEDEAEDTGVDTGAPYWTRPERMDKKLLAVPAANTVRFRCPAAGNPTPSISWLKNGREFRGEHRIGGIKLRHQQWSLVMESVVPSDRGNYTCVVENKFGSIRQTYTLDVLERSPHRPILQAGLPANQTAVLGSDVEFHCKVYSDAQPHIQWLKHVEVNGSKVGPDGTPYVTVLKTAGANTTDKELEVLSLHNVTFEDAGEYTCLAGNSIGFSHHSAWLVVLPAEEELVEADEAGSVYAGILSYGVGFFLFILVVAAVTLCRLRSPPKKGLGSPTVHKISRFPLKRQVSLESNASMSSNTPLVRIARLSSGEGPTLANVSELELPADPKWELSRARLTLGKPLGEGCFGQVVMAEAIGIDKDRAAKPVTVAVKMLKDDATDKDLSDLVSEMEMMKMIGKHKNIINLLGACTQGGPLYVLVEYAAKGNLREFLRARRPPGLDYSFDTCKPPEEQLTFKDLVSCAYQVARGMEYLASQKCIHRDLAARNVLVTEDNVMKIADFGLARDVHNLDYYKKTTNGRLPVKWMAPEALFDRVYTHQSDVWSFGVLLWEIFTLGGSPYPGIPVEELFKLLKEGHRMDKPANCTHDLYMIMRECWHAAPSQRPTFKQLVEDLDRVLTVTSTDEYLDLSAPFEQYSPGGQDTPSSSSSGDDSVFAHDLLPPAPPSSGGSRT

Sequence	phosphorylation enrichment
IYRASYYRRGD [LTK_Y676]	0.555
SLYPGYNFRYA [P2RX7_Y291]	0.57
LGKGSYAKVRS [TSSK2_Y23_K27R]	0.699
DCLASYLDKVR [KRT10_Y160_R156C]	0.659
LDLPGYCLLRE [CCDC116_Y291_P293L]	1.39
MSSHHYDFKKF [ZNF445_Y428_YF]	0.346
LSIDRYHAIVF [NPSR1_Y147_YF]	1.44
GAMGHYVLAER [HFE_Y342]	0.446
IDDNEYAYLKA [HNF4A_Y286]	0.868
LSQAKYQIRYR [CRLF1_Y272_F268S]	0.603
FQRITYHNWRH [PDE6B_Y556_R552Q_YF]	0.634
NTYEKYWPFYQ [GATM_Y103]	1.89
DGYTDYAEFAK [MCFD2_Y138_I136T]	0.699
DPHKIYEFVNS [IRF3_Y107]	1.51
KPNMNYDKLSW [FLI1_Y332_R337W]	0.59
RRGMPYGGCGD [TGM1_Y312_R315C]	0.573

Test system: Fer (mouse)
Test: as above

Sequence	phosphorylation enrichment
IYRASYYRRGD [LTK_Y676]	0.453
SLYPGYNFRYA [P2RX7_Y291]	0.498
LGKGSYAKVRS [TSSK2_Y23_K27R]	0.626
DCLASYLDKVR [KRT10_Y160_R156C]	0.402
LDLPGYCLLRE [CCDC116_Y291_P293L]	1.63
MSSHHYDFKKF [ZNF445_Y428_YF]	0.308
LSIDRYHAIVF [NPSR1_Y147_YF]	0.444
GAMGHYVLAER [HFE_Y342]	0.453
IDDNEYAYLKA [HNF4A_Y286]	0.507
LSQAKYQIRYR [CRLF1_Y272_F268S]	0.467
FQRITYHNWRH [PDE6B_Y556_R552Q_YF]	0.452
NTYEKYWPFYQ [GATM_Y103]	1.92
DGYTDYAEFAK [MCFD2_Y138_I136T]	0.4
DPHKIYEFVNS [IRF3_Y107]	18.1
KPNMNYDKLSW [FLI1_Y332_R337W]	0.555
RRGMPYGGCGD [TGM1_Y312_R315C]	0.409

Target: Fes (UniProt P07332)
Test: as above

Sequence of Fes (P07332 whole entry, looked up): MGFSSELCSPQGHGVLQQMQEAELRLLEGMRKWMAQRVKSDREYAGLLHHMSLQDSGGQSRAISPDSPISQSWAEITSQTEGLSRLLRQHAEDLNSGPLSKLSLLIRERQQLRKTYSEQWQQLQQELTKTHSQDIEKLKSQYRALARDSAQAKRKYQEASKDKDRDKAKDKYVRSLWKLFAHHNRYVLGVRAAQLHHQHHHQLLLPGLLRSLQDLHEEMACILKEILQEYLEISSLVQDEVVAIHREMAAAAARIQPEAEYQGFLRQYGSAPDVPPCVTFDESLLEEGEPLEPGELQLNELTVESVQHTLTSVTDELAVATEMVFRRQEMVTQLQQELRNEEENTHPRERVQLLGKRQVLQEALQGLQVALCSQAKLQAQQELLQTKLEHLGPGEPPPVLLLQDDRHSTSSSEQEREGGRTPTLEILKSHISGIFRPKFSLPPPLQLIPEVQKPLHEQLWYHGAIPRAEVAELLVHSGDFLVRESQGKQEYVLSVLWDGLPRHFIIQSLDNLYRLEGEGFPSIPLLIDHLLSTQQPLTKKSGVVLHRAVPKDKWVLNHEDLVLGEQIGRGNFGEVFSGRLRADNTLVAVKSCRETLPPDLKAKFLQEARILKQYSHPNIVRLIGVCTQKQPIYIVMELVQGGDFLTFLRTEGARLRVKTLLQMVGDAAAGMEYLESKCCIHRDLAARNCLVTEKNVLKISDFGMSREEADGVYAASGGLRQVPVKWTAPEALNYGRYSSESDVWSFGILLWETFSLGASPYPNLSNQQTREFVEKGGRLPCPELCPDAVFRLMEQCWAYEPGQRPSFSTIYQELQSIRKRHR

Sequence	phosphorylation enrichment
IYRASYYRRGD [LTK_Y676]	0.757
SLYPGYNFRYA [P2RX7_Y291]	0.685
LGKGSYAKVRS [TSSK2_Y23_K27R]	0.733
DCLASYLDKVR [KRT10_Y160_R156C]	0.953
LDLPGYCLLRE [CCDC116_Y291_P293L]	2.21
MSSHHYDFKKF [ZNF445_Y428_YF]	0.462
LSIDRYHAIVF [NPSR1_Y147_YF]	1.3
GAMGHYVLAER [HFE_Y342]	0.659
IDDNEYAYLKA [HNF4A_Y286]	0.991
LSQAKYQIRYR [CRLF1_Y272_F268S]	0.768
FQRITYHNWRH [PDE6B_Y556_R552Q_YF]	0.762
NTYEKYWPFYQ [GATM_Y103]	2.3
DGYTDYAEFAK [MCFD2_Y138_I136T]	0.844
DPHKIYEFVNS [IRF3_Y107]	7.43
KPNMNYDKLSW [FLI1_Y332_R337W]	0.741
RRGMPYGGCGD [TGM1_Y312_R315C]	0.489

Target: Fyn (UniProt P06241)
Test: as above

Sequence of Fyn (P06241 whole entry, looked up): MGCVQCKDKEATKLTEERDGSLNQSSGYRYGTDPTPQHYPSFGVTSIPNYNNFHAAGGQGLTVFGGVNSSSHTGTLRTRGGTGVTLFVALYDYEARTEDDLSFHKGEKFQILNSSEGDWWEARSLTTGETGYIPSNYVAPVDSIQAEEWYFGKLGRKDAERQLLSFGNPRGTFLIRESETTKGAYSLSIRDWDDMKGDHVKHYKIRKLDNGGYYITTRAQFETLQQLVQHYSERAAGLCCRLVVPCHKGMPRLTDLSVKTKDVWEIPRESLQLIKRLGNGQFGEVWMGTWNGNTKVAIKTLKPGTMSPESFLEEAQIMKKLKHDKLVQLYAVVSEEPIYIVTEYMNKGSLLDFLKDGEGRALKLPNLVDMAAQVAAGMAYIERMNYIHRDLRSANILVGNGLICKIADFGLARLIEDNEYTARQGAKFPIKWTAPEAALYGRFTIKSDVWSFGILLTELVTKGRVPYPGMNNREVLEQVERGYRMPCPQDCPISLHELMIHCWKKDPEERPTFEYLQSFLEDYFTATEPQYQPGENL

Sequence	phosphorylation enrichment
IYRASYYRRGD [LTK_Y676]	0.594
SLYPGYNFRYA [P2RX7_Y291]	0.413
LGKGSYAKVRS [TSSK2_Y23_K27R]	0.725
DCLASYLDKVR [KRT10_Y160_R156C]	0.422
LDLPGYCLLRE [CCDC116_Y291_P293L]	0.908
MSSHHYDFKKF [ZNF445_Y428_YF]	0.384
LSIDRYHAIVF [NPSR1_Y147_YF]	0.833
GAMGHYVLAER [HFE_Y342]	0.41
IDDNEYAYLKA [HNF4A_Y286]	0.564
LSQAKYQIRYR [CRLF1_Y272_F268S]	0.776
FQRITYHNWRH [PDE6B_Y556_R552Q_YF]	0.466
NTYEKYWPFYQ [GATM_Y103]	5.72
DGYTDYAEFAK [MCFD2_Y138_I136T]	0.96
DPHKIYEFVNS [IRF3_Y107]	9.53
KPNMNYDKLSW [FLI1_Y332_R337W]	0.486
RRGMPYGGCGD [TGM1_Y312_R315C]	0.522
